Measured values taken from patent US20050064507.

Tests used:
[1] = tested on: T1, MARCKS peptide KKKKKRFSFKKSFKL (SEQ ID NO:80)
T1 sequence: KKKKKRFSFKKSFKL

[2] = tested on: T2, dag kinase zeta peptide KKKKRASFKRKSSKKG (SEQ ID NO:114)
T2 sequence: KKKKRASFKRKSSKKG

[3] = tested on: T3, SPTBN4 peptide EGGDRRASGRRK (SEQ ID NO:110)
T3 sequence: EGGDRRASGRRK

[4] = tested on: T4, PKD1 peptide RVVQSVKHTKRKSSTVMK (SEQ ID NO:149)
T4 sequence: RVVQSVKHTKRKSSTVMK

[5] = tested on: T5, PRKCA peptide RFARKGSLRQKNV (SEQ ID NO:85)
T5 sequence: RFARKGSLRQKNV

[6] = tested on: T6, peptide EILSRRPSYRKILND (SEQ ID NO:25)
T6 sequence: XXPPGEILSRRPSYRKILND

[7] = tested on: T7, peptide KATTKKRTLRKNDRK (SEQ ID NO:32)
T7 sequence: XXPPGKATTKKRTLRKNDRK

[8] = tested on: T8, MGC2941 peptide RPTPGDGEKRSRIKKSKKRK (SEQ ID NO:139)
T8 sequence: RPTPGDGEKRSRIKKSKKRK

[9] = tested on: T9, peptide KLAVGRHSFSRRSGV (SEQ ID NO:21)
T9 sequence: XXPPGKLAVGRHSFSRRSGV

[10] = tested on: T10, beta adducin peptide KKKFRTPSFLKKSKK (SEQ ID NO:135)
T10 sequence: KKKFRTPSFLKKSKK

[11] = tested on: T11, peptide QRQERIFSKRRGQDF (SEQ ID NO:63)
T11 sequence: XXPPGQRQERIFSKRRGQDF

[12] = tested on: T12, SMARCA5 peptide MAQIERGEARIQRRISIKKA (SEQ ID NO:166)
T12 sequence: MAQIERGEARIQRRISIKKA

[13] = tested on: T13, peptide AGWRKKTSFRKPKED (SEQ ID NO:17)
T13 sequence: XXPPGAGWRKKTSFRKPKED

[14] = tested on: T14, peptide NYLRRRLSDSNFMAN (SEQ ID NO:38)
T14 sequence: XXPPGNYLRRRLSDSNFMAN

[15] = tested on: T15, dag kinase iota peptide NRKKKRTSFKRKA (SEQ ID NO:115)
T15 sequence: NRKKKRTSFKRKA

[16] = tested on: T16, peptide KEVVRTDSLKGRRGR (SEQ ID NO:30)
T16 sequence: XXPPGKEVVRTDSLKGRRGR

[17] = tested on: T17, peptide RKNDRKKRYTVVGNP (SEQ ID NO:29)
T17 sequence: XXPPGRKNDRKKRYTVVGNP

[18] = tested on: T18, NMDAR1 peptide RAITSTLASSFKRRR (SEQ ID NO:122)
T18 sequence: RAITSTLASSFKRRR

[19] = tested on: T19, peptide ALRAPKPTLRYFTTERF (SEQ ID NO:64)
T19 sequence: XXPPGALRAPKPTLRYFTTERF

[20] = tested on: T20, peptide RKKRKKKSSKSLAHAGVALA (SEQ ID NO:31)
T20 sequence: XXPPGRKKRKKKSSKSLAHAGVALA

[21] = tested on: T21, peptide GFAKKIGSGQKTWTF (SEQ ID NO:66)
T21 sequence: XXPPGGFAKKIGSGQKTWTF

[22] = tested on: T22, peptide RQRKRKLSFRRRTDKD (SEQ ID NO:5)
T22 sequence: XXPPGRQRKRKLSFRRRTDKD

[23] = tested on: T23, peptide ENLRKVTTDKKSLAY (SEQ ID NO:54)
T23 sequence: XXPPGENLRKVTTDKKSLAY

[24] = tested on: T24, NEURL peptide ALRRPSLRREADD (SEQ ID NO:105)
T24 sequence: ALRRPSLRREADD

[25] = tested on: T25, peptide HKHSPEKRGSERKEG (SEQ ID NO:52)
T25 sequence: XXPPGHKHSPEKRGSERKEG

[26] = tested on: T26, cytohesin-2 peptide VDPFYEMLAARKKRISVKKK (SEQ ID NO:150)
T26 sequence: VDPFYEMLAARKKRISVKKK

[27] = tested on: T27, calcium channel, voltage-dependent, L type, alpha peptide RDIRQSPKRGFLRSASLGRR (SEQ ID NO:147)
T27 sequence: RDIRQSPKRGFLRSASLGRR

[28] = tested on: T28, nuclear RNA export factor 3 peptide VRYTPYTISPYNRKGSFRKQ (SEQ ID NO:143)
T28 sequence: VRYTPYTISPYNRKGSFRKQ

[29] = tested on: T29, peptide WKGKRRSKARKKRK (SEQ ID NO:13)
T29 sequence: XXPPGWKGKRRSKARKKRK

[30] = tested on: T30, peptide LLKKRDSFRTPRDSKLE (SEQ ID NO:22)
T30 sequence: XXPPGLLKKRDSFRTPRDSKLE

[31] = tested on: T31, Myt1 kinase peptide PPRTPGWHQLQPRRVSFRGE (SEQ ID NO:163)
T31 sequence: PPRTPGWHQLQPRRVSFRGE

[32] = tested on: T32, PARIS1 peptide RELEQLKAEYLERRASRRRA (SEQ ID NO:148)
T32 sequence: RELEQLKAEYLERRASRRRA

[33] = tested on: T33, MARCKS peptide PSPSNETPKKKKKRFSFKKS (SEQ ID NO:157)
T33 sequence: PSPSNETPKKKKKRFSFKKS

[34] = tested on: T34, GABRB2 peptide QKKSRLRRRASQLKI (SEQ ID NO:84)
T34 sequence: QKKSRLRRRASQLKI

[35] = tested on: T35, peptide AVRDMRQTVAVGVIK (SEQ ID NO:62)
T35 sequence: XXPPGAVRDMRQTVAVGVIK

[36] = tested on: T36, Urotensin-2 receptor peptide LYARLARAYRRSQRASFKRA (SEQ ID NO:159)
T36 sequence: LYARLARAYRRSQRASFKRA

[37] = tested on: T37, peptide ARIIGEKSFRRSVVG (SEQ ID NO:47)
T37 sequence: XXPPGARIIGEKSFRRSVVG

[38] = tested on: T38, MARCKS peptide KKRFSFKKSFKLSGFSFKKN (SEQ ID NO:119)
T38 sequence: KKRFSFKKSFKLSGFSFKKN

[39] = tested on: T39, peptide HVRRRRGTFKRSKLRARD (SEQ ID NO:1)
T39 sequence: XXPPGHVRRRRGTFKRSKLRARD

Substance: PKC-delta
- in vitro phosphorylation (% of best substrate) [1]: 24
- in vitro phosphorylation, 1 uM peptide (% of best substrate) [2]: 80
- in vitro phosphorylation, 10 uM peptide (% of best substrate) [2]: 100
- in vitro phosphorylation (% of best substrate) [3]: 5
- in vitro phosphorylation, 1 uM peptide (% of best substrate) [4]: 20
- in vitro phosphorylation, 10 uM peptide (% of best substrate) [4]: 17
- in vitro phosphorylation (% of best substrate) [5]: 34
- in vitro phosphorylation (% of best substrate) [6]: 9
- in vitro phosphorylation (% of best substrate) [7]: > 5
- in vitro phosphorylation, 1 uM peptide (% of best substrate) [8]: 31
- in vitro phosphorylation, 10 uM peptide (% of best substrate) [8]: 24
- in vitro phosphorylation (% of best substrate) [9]: 12
- in vitro phosphorylation, 1 uM peptide (% of best substrate) [10]: 40
- in vitro phosphorylation, 10 uM peptide (% of best substrate) [10]: 25
- in vitro phosphorylation (% of best substrate) [11]: 1
- in vitro phosphorylation, 1 uM peptide (% of best substrate) [12]: 13
- in vitro phosphorylation, 10 uM peptide (% of best substrate) [12]: 29
- in vitro phosphorylation (% of best substrate) [13]: 17
- in vitro phosphorylation (% of best substrate) [14]: 3
- in vitro phosphorylation, 1 uM peptide (% of best substrate) [15]: 94
- in vitro phosphorylation, 10 uM peptide (% of best substrate) [15]: 99
- in vitro phosphorylation (% of best substrate) [16]: 7
- in vitro phosphorylation (% of best substrate) [17]: 8
- in vitro phosphorylation, 1 uM peptide (% of best substrate) [18]: 55
- in vitro phosphorylation, 10 uM peptide (% of best substrate) [18]: 24
- in vitro phosphorylation (% of best substrate) [19]: 1
- in vitro phosphorylation (% of best substrate) [20]: > 5
- in vitro phosphorylation (% of best substrate) [21]: 1
- in vitro phosphorylation (% of best substrate) [22]: 42
- in vitro phosphorylation (% of best substrate) [23]: 2
- in vitro phosphorylation (% of best substrate) [24]: 9
- in vitro phosphorylation (% of best substrate) [25]: 2
- in vitro phosphorylation, 1 uM peptide (% of best substrate) [26]: 34
- in vitro phosphorylation, 10 uM peptide (% of best substrate) [26]: 20
- in vitro phosphorylation, 1 uM peptide (% of best substrate) [27]: 27
- in vitro phosphorylation, 10 uM peptide (% of best substrate) [27]: 13
- in vitro phosphorylation, 1 uM peptide (% of best substrate) [28]: 33
- in vitro phosphorylation, 10 uM peptide (% of best substrate) [28]: 32
- in vitro phosphorylation (% of best substrate) [29]: 22
- in vitro phosphorylation (% of best substrate) [30]: 12
- in vitro phosphorylation, 1 uM peptide (% of best substrate) [31]: 13
- in vitro phosphorylation, 10 uM peptide (% of best substrate) [31]: 21
- in vitro phosphorylation, 1 uM peptide (% of best substrate) [32]: 27
- in vitro phosphorylation, 10 uM peptide (% of best substrate) [32]: 14
- in vitro phosphorylation, 1 uM peptide (% of best substrate) [33]: 27
- in vitro phosphorylation, 10 uM peptide (% of best substrate) [33]: 35
- in vitro phosphorylation (% of best substrate) [34]: 34
- in vitro phosphorylation (% of best substrate) [35]: 1
- in vitro phosphorylation, 1 uM peptide (% of best substrate) [36]: 15
- in vitro phosphorylation, 10 uM peptide (% of best substrate) [36]: 12
- in vitro phosphorylation (% of best substrate) [37]: 2
- in vitro phosphorylation, 1 uM peptide (% of best substrate) [38]: 42
- in vitro phosphorylation, 10 uM peptide (% of best substrate) [38]: 16
- in vitro phosphorylation (% of best substrate) [39]: 100
